Positions count from the first letter of the chain named.

The labels stand for the following.
B1: VG9B162 (antibody, human IgG1, lambda, V domains shown)
VH: QVQLVESGAEVTKPGASVKVSCKASGYTFTGDYMHWVRQAPGQGLEWMGWINPNSGYTNYAQKFQGRVTMTRDTSISTAYMELSRLRSDDTAVYYCAREGDAFDVWGQGTMVTVSS
VL: QLVLTQSSSASGSPGQSVTISCTGTSSDVGGYNYVSWYQQHPGKAPKLMIYEVSKRPSGVPDRFSGSKSGNTASLTVSGLQAEDEADYYCNSYAGSNNFEVFGGGTKLTVLG
B2: VG9B191 (antibody, human IgG1, lambda, V domains shown)
VH: EVQLVQSGGGLVKPGGSLRLSCAASGFTFSRYSMNWVRQAPGKGLEGVSSISSSSSYIYYADSVKGRFTISRDNAKNSLYLQMNSLRAEDTAVYYCARDGPTVNWDYYFDLWGRGTLVTVSS
VL: QSVLTQPPSVSAAPGQKVTISCSGSSSNIGNNYVSWYQQLPGTAPKLLIYDNNKRPSGIPDRFSGSKSGTSATLGITGLQTGDEADYYCGTWDSSLSTSVVFGGGTKLTVLG
B3: VG9B57 (antibody, human IgG1, kappa, V domains shown)
VH: EVQLVESGGGLVKPGGSLRLSCAASGFTFSSHDMNWVRQAPGKGLGWVSSISSSSSYIFYADSVKGRFTISRDNAKNSLYLQMSSLRAEDTAVYYCARDLGVGVRDYYYYGMDVWGQGTMVTVSS
VL: DIQMTQSPSAMSASVGDRVTITCRASQDITNYLAWFQQKPGKVPKRLIYAASSLQGGVPSRFSGSGSGTEFTLTISSLQPEDFSTYYCLQHDTYPYTFGQGTKLEIKR
B4: VG9B409 (antibody, human IgG1, kappa, V domains shown)
VH: EVQLVESGAEVKKPGASVKVSCKASGYTLTSYYMHWVRQAPGQGLEWMGIINPSGGSTSYAQKFQGRVTMTRDTSTSTVYMELSSLRSEDTAVYYCARGSYGWYFDLWGRGTLVTVSS
VL: EIVLTQSPGTLSLSPGERATLSCRASQSVTSSYLAWYQQKPGQTPRLLIYGASSRATGIPDRISGSGSGTDFTLTVSRLEPEDFAVYYCQQYGSSPPYTFGQGTKLEIKR
B5: VG9B152 (antibody, human IgG1, lambda, V domains shown)
VH: EVQLVESGGGLVRPGGSLRLSCEASGFTFSSYSMIWVRQAPGKGLEWVSSISSSSDYIYNADSVKGRFTISRDNAKNSLYLQMNSLRAEDTAVYYCARDWELLGFDCWGQGTTVTVSS
VL: SYELMQPPSVSVSPGQTASITCSGDKLGDKYACWYQQKPGQSPVLVIYQHNKRPSGIPERFSGSNSGKTATLTISGTQAMDEADYYCQAWDSTTVVFGGGTKLTVLG
B6: VG9B44 (antibody, human IgG1, kappa, V domains shown)
VH: QVQLQQSGPGLVKPSQTLSLTCAISGDSVSSNSAAWNWIRQSPSRGLEWLGRTYYRSKWYNDYPISVKSRISINPDTSKNQFSLQLNSVTPEDTAVYYCARESGSYYTDGFDIWGQGTMVTVSS
VL: DIQMTQSPSFLSASVGDRVTITCRASQGISSYLAWYQQKPGKAPKLLIYAASTLQSGVPSRFSGSGSGTEFTLTISSLQPEDFATYYCQEFNSYPYTFGQGTKLEIKR
B7: VG9B33 (antibody, human IgG1, kappa, V domains shown)
VH: EVQLVESGGGLVKPGGSLRLSCAASGFTFSSYNMNWVRQAPGKGLEWVSSISTSSSYIYYADSVKGRFTISRDNAKNSLYLQMNGLRAEDTAVYYCARDTSVTKYPDTFDIWGQGTMVTVSS
VL: DIVMTQSPSSLSASVGDRVTITCRASQDINNYLAWFQQKPGKVPNLLIYGASTLQSGVPSRFTGSGSGTDFTLTISSLQPEDVATYYCQKYNSAPFTFGPGTKVDIKR
B8: VG9B21 (antibody, human IgG1, kappa, V domains shown)
VH: EVQLLESGGGLVKPGGSLRLSCAASGFSFSNYDMNWVRQAPRKGLEWVSSISSSSHYIYYADSLKGRFTISRDNAKNSLFLQMNSLRAEDTAVYYCARDRGVTTDYYYYALDVWGQGTMVTVSS
VL: DIVMTQSPSSLSASVGDRVTITCRASQGIYNYLAWYQQKPGNVPKLLIYAASTLQSGVPSRFSGSGSGTDFSLTISSLQPEDFTTYYCQKYNRAPFTFGPGTKVDIKR
B9: VG9B60 (antibody, human IgG1, kappa, V domains shown)
VH: QVQLVQSGAEVKKPGASVKVSCKASGYTFTGYYMHWVRQAPGQGLEWMGRINPNSGVTHYAQKFQGRVTMTRDTSISTAYMELSRLRSDDTAVYYCARGGSLVRGVISGLDYWGQGTTVTVSS
VL: DIVMTQSPGTLSLSPGERATLSCRASQSFSGSYLAWYQQKPGQAPSLLIYGASSRATGIPDRFSGSGSGTDFTLTISRLEPEDFALYYCQQYGSSPPYTFGQGTKVEIKR
B10: VG9B67 (antibody, human IgG1, kappa, V domains shown)
VH: EVQLVESGGGLVKPGGSLRLSCAASGFTFSSYTMNWVRQAPGKGLEWVSSISSSSSYIDYAESVKGRFTISRDNAKNSLYLQMNSLRAEDTAVYYCARDGDILATIRGSFDYWGQGTTVTVSS
VL: DIVMTQTPLSLPVTPGEPASISCRSSQSLLDSDAGNTYLDWYLQKPGQSPQLLIYTLSYRASGVPDRFSGSGSGTDFTLKISRVEAEDVAIYYCMQRIEFPITFGQGTKVEIKR
B11: VG9B127 (antibody, human IgG1, kappa, V domains shown)
VH: B10 VH with E1Q, A23T, S30G, S31A, Y60F, N84I, L103V, A104S, T117A, T118L
VL: B10 VL with D1E, T7S, A34D, A90G
B12: VG9B66 (antibody, human IgG1, kappa, V domains shown)
VH: B10 VH with S31T, S56F, I58M, E62D, Y80S, Q82L, L103V, T118M
VL: EIVLTQSPSSLSTSVGDRVTITCRASQDITNFLAWYQQKPGKLPKLLIYTASTLQSGVPSRFSGSASGPDFTLTISSLQPEDVATYYCQKYNSAPFTFGPGTKVEIKR

The first assay deals with Vg5/Vd2 TCR on SKW3 cells (UniProt A0JD36). Description: flow cytometry, dose-response binding at 37° C. on SKW3 cells expressing Vg5/Vd2.
Sequence of Vg5/Vd2 TCR on SKW3 cells (A0JD36 20-115): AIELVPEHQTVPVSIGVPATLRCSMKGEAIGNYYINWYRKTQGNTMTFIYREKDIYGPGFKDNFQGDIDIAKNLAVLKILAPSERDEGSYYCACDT
Molecule B1 had a Max. Activity (fold over background) of 2.44.

B2 yielded a Max. Activity (fold over background) of 17.2.

Turning to B3, the Max. Activity (fold over background) was determined as 1.04.

B4 yielded a Max. Activity (fold over background) of 8.45.

Turning to B5, the Max. Activity (fold over background) is 1.64.

B6 showed a Max. Activity (fold over background) of 2.13.

Consider B7, for which the Max. Activity (fold over background) came to 2.85.

B8: the Max. Activity (fold over background) is 1.86.

In the case of B9, the Max. Activity (fold over background) was determined as 1.42.

As for B10, the Max. Activity (fold over background) worked out at 1.14.

Regarding B11, the Max. Activity (fold over background) turned out to be 1.78.

As to B12, the Max. Activity (fold over background) was 1.04.

The target in the next assay is Vg9/Vd1 TCR on SKW3 cells (UniProt Q99603). Description: flow cytometry, dose-response binding at 37° C. on SKW3 cells expressing Vg9/Vd1.
Sequence of Vg9/Vd1 TCR on SKW3 cells (Q99603 21-122): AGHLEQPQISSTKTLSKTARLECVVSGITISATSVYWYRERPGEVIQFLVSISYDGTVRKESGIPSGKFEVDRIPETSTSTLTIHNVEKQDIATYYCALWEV
In turn, B1 gave a Max. Activity (fold over background) of 249.

Turning to B2, the Max. Activity (fold over background) was 381.

On to B3, for which the Max. Activity (fold over background) worked out at 75.9.

Consider B4, for which the Max. Activity (fold over background) amounted to 408.

Consider B5, for which the Max. Activity (fold over background) was determined as 352.

Consider B6, for which the Max. Activity (fold over background) came to 375.

As to B7, the Max. Activity (fold over background) is 377.

In turn, B8 yielded a Max. Activity (fold over background) of 121.

On to B9, for which the Max. Activity (fold over background) is 40.6.

Molecule B10 came in with a Max. Activity (fold over background) of 318.

B11 returned a Max. Activity (fold over background) of 318.

B12: the Max. Activity (fold over background) amounted to 179.

In another assay the target is Vg9/Vd2 TCR on SKW3_4 cells (UniProt Q99603). Description: flow cytometry, dose-response binding at 37° C. on SKW3_4 cells expressing Vg9/Vd2.
Sequence of Vg9/Vd2 TCR on SKW3_4 cells (Q99603 21-122, chain 1 of 2): as the sequence (Q99603 21-122) above
Sequence of Vg9/Vd2 TCR on SKW3_4 cells (A0JD36 20-115, chain 2 of 2, further chain): as the sequence (A0JD36 20-115) above
In the case of B1, the Max. Activity (fold over background) stood at 96.3.

In turn, B2 showed a Max. Activity (fold over background) of 156.

In turn, B3 displayed a Max. Activity (fold over background) of 30.8.

Molecule B4 yielded a Max. Activity (fold over background) of 176.

B5 registered a Max. Activity (fold over background) of 141.

Turning to B6, the Max. Activity (fold over background) was determined as 170.

Consider B7, for which the Max. Activity (fold over background) came out at 173.

Molecule B8 came in with a Max. Activity (fold over background) of 39.7.

B9 returned a Max. Activity (fold over background) of 16.7.

As to B10, the Max. Activity (fold over background) stood at 128.

Molecule B11 gave a Max. Activity (fold over background) of 91.9.

Molecule B12 returned a Max. Activity (fold over background) of 33.9.

(Values after patent publication US20220125947A1.)
